Experimental data as given in publication PMC3292765 (2012).

Target: Rac1 (Homo sapiens, UniProt P63000)
Assay: microscale thermophoresis

B1: p67phox 1-212 (protein)
chain: MSLVEAISLWNEGVLAADKKDWKGALDAFSAVQDPHSRICFNIGCMYTILKNMTEAEKAFTRSINRDKHLAVAYFQRGMLYYQTEKYDLAIKDLKEALIQLRGNQLIDYKILGLQFKLFACEVLYNIAFMYAKKEEWKKAEEQLALATSMKSEPRHSKIDKAMECVWKQKLYEPVVIPVGKLFRPNERQVAQLAKKDYLGKATVVASVVDQD
For B1, the Kd was about 40 nM.
